Data as given in publication PMC9433327.
Where two headings read alike, the source gives them in different places.

Assays:
[1] = biological target: LRPL-1 (cDNA lacking the signal peptide) (C. elegans); assay: SPR; LRPL-1 biotinylated and captured on a Streptavidin chip, Biacore X100; DMA-1 ectodomain as analyte at 78 nM to 10 µM; HBS (10 mM HEPES pH 7.2, 150 mM NaCl) with 0.05% Tween-20 and 0.1% BSA; kinetic fit and steady-state fit (Langmuir 1:1)
[2] = biological target: LRPL-1 (cDNA lacking the signal peptide) (C. elegans); assay: as above; remark: listed apart in the source

Kd [1]: 3.9 µM
koff [1]: 0.018 s⁻¹
kon [1]: 4600 M⁻¹ s⁻¹
Kd [2]: 6.9 µM
Substance: DMA-1 ectodomain (amino acids Leu20 to Leu507) (domain or fragment)
